Earlier results on one sequence are cited in PMC7922473.

This data set has as its target PrPC (cellular prion protein) (UniProt P04156).

As usually defined, the Kd is the equilibrium constant for the complex coming apart. Regarding “CGGTGGGGCAATTTCTCCTACTGT [PrPC aptamer (PrPC-Apt)]”, the equilibrium dissociation constant (Kd) was 16 nM.
